Measured values reported in patent US20230002481A1 (Chugai, published 2023).

Target: T1, recombinant human C1r2s2 tetramer (human, UniProt P09871 16-688; P00736 18-705)
T1 construct: Heterotetramer of two C1r and two C1s chains, co-expressed in FreeStyle293-F cells; also called human C1r2s2s
T1 chain 1: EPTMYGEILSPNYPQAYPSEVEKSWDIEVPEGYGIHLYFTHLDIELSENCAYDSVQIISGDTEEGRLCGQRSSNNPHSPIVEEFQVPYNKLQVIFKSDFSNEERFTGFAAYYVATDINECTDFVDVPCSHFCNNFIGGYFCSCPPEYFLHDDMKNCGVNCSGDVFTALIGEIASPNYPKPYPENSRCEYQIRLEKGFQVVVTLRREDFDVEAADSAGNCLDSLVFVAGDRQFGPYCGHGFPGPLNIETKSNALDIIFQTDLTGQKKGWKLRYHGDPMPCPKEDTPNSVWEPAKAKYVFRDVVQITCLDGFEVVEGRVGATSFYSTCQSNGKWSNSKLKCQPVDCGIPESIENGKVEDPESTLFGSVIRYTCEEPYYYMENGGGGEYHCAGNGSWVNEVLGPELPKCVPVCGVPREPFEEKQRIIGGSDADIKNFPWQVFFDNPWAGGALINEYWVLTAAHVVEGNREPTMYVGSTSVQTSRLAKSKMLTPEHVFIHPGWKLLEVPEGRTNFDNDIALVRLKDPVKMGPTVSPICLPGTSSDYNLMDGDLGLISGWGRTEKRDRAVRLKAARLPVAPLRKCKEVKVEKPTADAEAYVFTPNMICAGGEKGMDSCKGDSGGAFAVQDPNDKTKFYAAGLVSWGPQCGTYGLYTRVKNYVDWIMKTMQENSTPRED
T1 chain 2: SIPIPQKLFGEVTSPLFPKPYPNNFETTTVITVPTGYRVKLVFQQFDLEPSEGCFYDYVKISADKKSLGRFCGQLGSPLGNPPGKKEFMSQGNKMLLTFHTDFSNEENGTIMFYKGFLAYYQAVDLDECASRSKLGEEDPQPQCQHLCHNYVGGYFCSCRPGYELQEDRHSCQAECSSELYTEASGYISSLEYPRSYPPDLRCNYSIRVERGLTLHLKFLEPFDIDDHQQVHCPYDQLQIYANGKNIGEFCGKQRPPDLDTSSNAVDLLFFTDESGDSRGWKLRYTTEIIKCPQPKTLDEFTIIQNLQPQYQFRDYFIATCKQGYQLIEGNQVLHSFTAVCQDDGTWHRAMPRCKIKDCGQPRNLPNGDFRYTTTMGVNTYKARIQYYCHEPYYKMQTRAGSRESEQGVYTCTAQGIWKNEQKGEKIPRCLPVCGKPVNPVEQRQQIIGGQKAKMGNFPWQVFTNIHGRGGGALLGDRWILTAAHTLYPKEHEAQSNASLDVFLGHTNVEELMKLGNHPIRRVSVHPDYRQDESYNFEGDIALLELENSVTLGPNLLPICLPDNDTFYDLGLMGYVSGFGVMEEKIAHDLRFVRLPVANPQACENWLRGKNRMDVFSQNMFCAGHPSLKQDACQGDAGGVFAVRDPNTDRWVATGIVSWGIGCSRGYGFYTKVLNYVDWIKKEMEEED
Experiment: SPR (Biacore), antibody captured on ProA/G, antigen as analyte, 37 C, pH5.8, 1.2 mM CaCl2; pH 5.8
Procedure: The kinetic parameters of anti-C1s antibodies against recombinant human C1s (as described in PCT/JP2018/042054), human C1r2s2, and cyno C1r2s2 His/Flag (also referred as cyno C1r2s2 in the Table and Figures) were assessed at pH7.4 and pH5.8, at 37 degrees C. using BIACORE (registered trademark) T200 instrument (GE Healthcare) or BIACORE 4000 (GE Healthcare). ProAG (Pierce) was immobilized onto a CM4 sensorchip using amine coupling kit (GE Healthcare) according to the recommended settings by GE Healthcare. Antibodies and analytes were diluted into the respective running buffers, ACES pH7.4 and pH5.8 (20 mM ACES, 150 mM NaCl, 1.2 mM CaCl₂, 1 mg/ml BSA, 1 mg/ml CMD, 0.05% Tween 20, 0.005 w/v % NaN₃). Each antibody was captured onto the sensor surface by ProA/G. Antibody capture levels were typically 100-200 resonance units (RU). Then, recombinant C1s was injected at concentrations of 25 and 50 nM followed by dissociation at pH7.4 and pH5.8. The surface was regenerated using 10 mM Glycine-HCl, pH1.5. Kinetic parameters at neutral pH conditions and acidic conditions were determined by fitting the sensorgrams with 1:1 binding model using BIACORE (registered trademark) T200 Evaluation software, version 2.0 (GE Healthcare) or BIACORE 4000 Evaluation software. The dissociation rate at pH5.8 (after dissociation at pH7.4, indicated as pH5.8* in TABLE 2) was determined by processing and fitting data using Scrubber 2.0 (BioLogic Software) curve fitting software. The association rate (ka), dissociation rate (kd), binding affinity (KD) at pH7.4 and pH5.8 condition, and dissociation rate (kd) at pH5.8* condition of the antibodies are listed in TABLE 2. Some kinetic parameters of COS0098pHv1 in acidic condition were not correctly calculated because of its weak binding response.
Also, to observe the cross-reactivity of anti-C1s antibodies against human C1r2s2 and cyno C1r2s2 (cyno C1r2s2 His/Flag), BIACORE (registered trademark) kinetics analysis was performed.

B1: COS0098bb (antibody, V domains shown)
VH: QSVEESGGRLVTPGTPLTLTCTVSGFSLTKYTVSWVRQAPGKGLEWIGIINTGGSAYYATWAKGRFTFSKTSTTVDLQITSPTTEDTATYFCARGNGDTDYTNLWGPGTLVTVSS
VL: QVLTQTPSSVSEPVGGTVTINCQASENIYSALAWYQQKPGQPPKLLIYGASNLESGVPSRFKGSGSGTQFTLTISDLECADAATYYCQQYYFTSSTFGGGTKVEIK
notes: Anti-C1s rabbit antibody, parent of COS0098pHv1; the antibody was captured by ProA/G; also called anti-C1s antibody COS0098bb
Kd: 1.2 nM | koff: 0.00103 s⁻¹ | kon: 858000 M⁻¹ s⁻¹
